Experimental data from US20240336672A1 (INSTITUT PASTEUR, published 2024).
Substitutions are numbered along the chain they refer to.

Columns and labels:
[1] = target: T1, SARS-CoV-2 S1 domain, Wuhan (SARS-CoV-2, UniProt P0DTC2 16-681); experiment: ELISA; design: unit not given beside the values
[2] = target: T1, SARS-CoV-2 S1 domain, Wuhan; experiment: ELISA
[3] = target: T1, SARS-CoV-2 S1 domain, Wuhan; experiment: SPR (Biacore), antibody coupled to CM5 chip, viral protein as analyte
[4] = target: T2, SARS-CoV-2 spike, Wuhan strain, on virus or pseudotyped particles (SARS-CoV-2, UniProt P0DTC2 14-1273); experiment: cell-based or functional assay
[5] = target: T2, SARS-CoV-2 spike, Wuhan strain, on …; experiment: cell-based or functional assay; remark: listed apart in the source
[6] = target: T1, SARS-CoV-2 S1 domain, Wuhan; experiment: SPR (Biacore), IgG immobilized, viral protein as analyte
[7] = target: T1, SARS-CoV-2 S1 domain, Wuhan; experiment: ELISA, coated antigen; note: test concentration or dose not given here
[8] = target: T1, SARS-CoV-2 S1 domain, Wuhan; experiment: SPR (Biacore), antibody immobilised
[9] = target: SARS-CoV-2 RBD domain, Wuhan (SARS-CoV-2); experiment: RBD-ACE2 competition ELISA; design: unit not given beside the values
[10] = target: SARS-CoV-2 RBD domain, Wuhan (SARS-CoV-2); experiment: RBD-ACE2 competition ELISA
[11] = target: SARS-CoV-2 RBD domain, Wuhan (SARS-CoV-2); experiment: ELISA; design: unit not given beside the values
Throughout, for OD405nm: test concentration or dose not given here.
Throughout, for PseudoNEUT (%): test concentration or dose not given here.
Throughout, for S-FuseNEUT (%): test concentration or dose not given here.

B1: ADG-2 (antibody, V domains shown)
VH: EVQLVESGGGLVKPGGSLRLSCAASGFTFSSYYMNWVRQAPGKGLEWVSSISEDGYSTYYPDSLKGRFTISRDSAKNSLYLQMNSLRADDTAVYYCARDFSGHTAWAGTGFEYWGQGTLVTVSS
VL: QSVLTQPPSVSGAPGQRITISCTGSSSNIGAGYDVHWYQQLPGTAPKLLIYGSSSRNSGVPDRFSGSKSGTSASLAITGLQAEDEADYYCQSYDSSLSVLYTFGTGTKVTVL
AUC [1]: 3

B2: Adintrevimab (antibody, V domains shown)
VH: B1 VH
VL: B1 VL
OD405nm [2]: 3.3

B3: Cv2.1169 (recombinant human IgG1) (antibody)
heavy: QVQLVQSGPEVKKPGTSVKVSCKASGFTFTTSAVQWVRQARGQRLEWIGWIVVGSGNTNYAQKFQERVTITRDMSTTTAYMELSSLRSEDTAVYYCAAPYCSGGTCLDGFDIWGQGTMVTVSSASTKGPSVFPLAPSSKSTSGGTAALGCLVKDYFPEPVTVSWNSGALTSGVHTFPAVLQSSGLYSLSSVVTVPSSSLGTQTYICNVNHKPSNTKVDKKVEPKSCDKTHTCPPCPAPELLGGPSVFLFPPKPKDTLMISRTPEVTCVVVDVSHEDPEVKFNWYVDGVEVHNAKTKPREEQYNSTYRVVSVLTVLHQDWLNGKEYKCKVSNKALPAPIEKTISKAKQPREPQVYTLPPSRDELTKNQVSLTCLVKGFYPSDIAVEWESNGQPENNYKTTPPVLDSDGSFFLYSKLTVDKSRWQQGNVFSCSVMHEALHNHYTQKSLSLSPGK
light: not shown
notes: also called Cv2.1169 IgG
Kd [3]: < 0.001 nM
Pseudoneutralization IC50 [4]: 3 ng/mL
Pseudoneutralization IC90 [4]: 12.4 ng/mL
S-Fuse neutralization IC50 [4]: 1.5 ng/mL
S-Fuse neutralization IC90 [4]: 3.5 ng/mL
PseudoNEUT (%) [5]: 100%
S-FuseNEUT (%) [5]: 95%
Kd [6]: 1.44 nM
koff [6]: 0.000354 s⁻¹
kon [6]: 246000 M⁻¹ s⁻¹
ELISA OD [7]: 3.5 OD
OD405nm [2]: 3.3

B4: Cv2.1353 (recombinant human IgG1) (antibody, V domains shown)
VH: EVQLVESGGGLVQPGGSLRLSCAASGVTVSSNYMNWVRQAPGKGLEWVSVIYSGGSTFYADSVKGRFIISRDNSKNTLYLQMNSLKTEDTAVYYCARDLGPMGFDIWGQGTMVTVSS
VL: DIQMTQSPSFLSASVGDRVTITCRASQGISSYLAWYQQKPGKAPKLLIYAASTLQSGVPSRFSGSGSGTEFTLTISSLQPEDFATYYCQQLNSDPPVTFGPGTKVDIKR
Kd [8]: 6 nM
PseudoNEUT (%) [5]: 100%
S-FuseNEUT (%) [5]: 100%
ELISA OD [7]: 3.5 OD

B5: Cv2.3235 (recombinant human IgG1) (antibody, V domains shown)
VH: EVQLVESGGGLIQPGGSLRLSCAASGFTVSRNYMSWVRQAPGKGLEWVSVIYSGGSTFYADSVKGRFTISRDNSKNTLYLQMNSLRAEDTAVYYCARDGDYYGMDVWGQGTTVTVSS
VL: DIQMTQSPSFLSASVGDRVTITCRASQGISSFLAWYQQKPGKAPKLLIYGASTLQSGVTSRFSGSGSGTEFTLTISSLQPEDFATYYCQRLDSYPPITFGQGTRLEIKR
Kd [8]: 18.9 nM
PseudoNEUT (%) [5]: 100%
S-FuseNEUT (%) [5]: 100%
ELISA OD [7]: 3.9 OD

B6: Cv2.5213 (recombinant human IgG1) (antibody, V domains shown)
VH: B5 VH with R31S, V50L, F58Y, G99L, D100N, T111A
VL: B4 VL with F10S, E70D, N92D, D94Y, P95S, V97F
Kd [8]: 520 nM
PseudoNEUT (%) [5]: 100%
S-FuseNEUT (%) [5]: 96%
ELISA OD [7]: 3.5 OD

B7: Cv2.3194 (recombinant human IgG1) (antibody, V domains shown)
VH: B5 VH with F27I, S30T, R31S, S53P, G99L, D100V, Y101V
VL: EIVLTQSPGTLSLSPGERATLSCRASQSVSSSYLAWYQQKPGQAPRLLIYGASSRATGIPGRFSGSGSGTDFTLTISRLEPEDFAIYYCQQGVTFGGGTKVEIKR
Kd [3]: < 0.001 nM
Pseudoneutralization IC50 [4]: 18.9 ng/mL
Pseudoneutralization IC90 [4]: 241 ng/mL
S-Fuse neutralization IC50 [4]: 3 ng/mL
S-Fuse neutralization IC90 [4]: 9.8 ng/mL
PseudoNEUT (%) [5]: 100%
S-FuseNEUT (%) [5]: 100%
Kd [6]: 1.2 nM
ELISA OD [7]: 3.7 OD
OD405nm [2]: 3.4

B8: COV2-2196 (parental IgG1 version) (antibody, V domains shown)
VH: QMQLVQSGPEVKKPGTSVKVSCKASGFTFMSSAVQWVRQARGQRLEWIGWIVIGSGNTNYAQKFQERVTITRDMSTSTAYMELSSLRSEDTAVYYCAAPYCSSISCNDGFDIWGQGTMVTVSS
VL: not shown
AUC [1]: 3

B9: Cv2.5179 (recombinant human IgG1) (antibody, V domains shown)
VH: B8 VH with M2V, M30T, I53V, Y100H, I104T, N107Y, G109A
VL: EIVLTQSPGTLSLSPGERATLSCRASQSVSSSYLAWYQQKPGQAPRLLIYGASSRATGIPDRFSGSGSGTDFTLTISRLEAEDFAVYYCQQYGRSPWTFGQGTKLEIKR
notes: also called Cv2.5179 IgG
AUC (Blocking) [9]: 103
IC50 (read off the curve) [10]: ~600 ng/mL
AUC (Binding) [11]: 11

B10: TIX (antibody, V domains shown)
VH: B8 VH
VL: not shown
notes: also called Tixagevimab
OD405nm [2]: 3.3
